Test results published in patent publication US20230364254A1, “METHODS FOR TREATING CANCERS WITH ANTIBODY DRUG CONJUGATES (ADC) THAT BIND TO 191P4D12 PROTEINS” (priority 2020, published 2023).

Tested on: patients with locally advanced or metastatic urothelial cancer
Assay: Same phase 2 study: safety (adverse events, NCI CTCAE v4.03)
Type: in vivo, human
Description: Safety assessments will be based on the information collected through the safety surveillance process and will include the data from recorded adverse events (AEs) including SAEs, recording of concomitant medication, physical examination findings, cardiac monitoring, and laboratory tests.
The assessment of safety during the course of this study will consist of the surveillance and recording of AEs including SAEs, recording of concomitant medication, and measurements of protocol-specified physical examination findings, cardiac monitoring, and laboratory tests.
AE severity should be graded using the National Cancer Institute's Common Terminology Criteria for Adverse Events (NCI CTCAE), Version 4.03. These criteria are provided in the study manual.
An overview of AEs will provide a tabulation of the incidence of all AEs, treatment-emergent AEs, treatment-related AEs, Grade 3 and higher AEs. SAEs, treatment-related SAEs, deaths, and AEs leading to study treatment discontinuation. Adverse events will be defined as treatment emergent if they are newly occurring or worsened following study treatment.
AEs will be classified by system organ class and preferred tem using the Medical Dictionary for Regulatory Activities (MedDRA) and graded using NCI CTCAE, Version 4.03.
The incidence of AEs will be summarized by system organ class, preferred term, severity and relationship to study drug. In the event of multiple occurrences of the same AE in one patient, the AE will be counted once as the occurrence for the maximum grade. AEs leading to premature discontinuation of study drug will be summarized and listed in the same manner.

[1] = Cohort 1 (N = 125), count (percent)

## enfortumab vedotin: Nectin-4 directed ADC: fully human anti-nectin-4 IgG1 kappa antibody (AGS-22C3) conjugated to MMAE via protease-cleavable maleimidocaproyl valine-citrulline linker
Cohort 1 (N = 125)
  AE of special interest, All Grade: Hyperglycemia: 20 (16) N (%)
  AE of special interest, All Grade: IRR: 8 (6.4) N (%)
  AE of special interest, All Grade: Ocular Events, Blurred Vision: 21 (16.8) N (%)
  AE of special interest, All Grade: Ocular Events, Corneal Disorders: 18 (14.4) N (%)
  AE of special interest, All Grade: Ocular Events, Dry Eye Disorders: 51 (40.8) N (%)
  AE of special interest, All Grade: Peripheral Neuropathy: 70 (56) N (%)
  AE of special interest, All Grade: Rash: 67 (53.6) N (%)
  AE of special interest, ≥Gr 3: Hyperglycemia: 10 (8) N (%)
  AE of special interest, ≥Gr 3: IRR: 1 (0.8) N (%)
  AE of special interest, ≥Gr 3: Peripheral Neuropathy: 5 (4) N (%)
  AE of special interest, ≥Gr 3: Rash: 15 (12.0) N (%)
  Any TEAEs: 125 (100.0) n (%)
  Any TEAEs leading to death: 7 (5.6) n (%)
  Any TEAEs leading to treatment discontinuation: 21 (16.8) n (%)
  Any grade 3-5 TEAEs: 92 (73.6) n (%)
  Any serious TEAEs: 58 (46.4) n (%)
  SAEs (All): Acute kidney injury: 4 (3.2) n (%)
  SAEs (All): Cellulitis: 6 (4.8) n (%)
  SAEs (All): Diarrhoea: 3 (2.4) n (%)
  SAEs (All): Febrile neutropenia: 5 (4.0) n (%)
  SAEs (All): Nausea: 3 (2.4) n (%)
  SAEs (All): Overall: 59 (47.2) n (%)
  SAEs (All): Pneumonia: 3 (2.4) n (%)
  SAEs (All): Sepsis: 4 (3.2) n (%)
  SAEs (All): Urinary tract infection: 6 (4.8) n (%)
  SAEs (Related): Acute kidney injury: 1 (0.8) n (%)
  SAEs (Related): Cellulitis: 2 (1.6) n (%)
  SAEs (Related): Diarrhoea: 1 (0.8) n (%)
  SAEs (Related): Febrile neutropenia: 5 (4.0) n (%)
  SAEs (Related): Nausea: 3 (2.4) n (%)
  SAEs (Related): Overall: 24 (19.2) n (%)
  Treatment-related AE leading to discontinuation: Asthenia: 1 (0.8) n (%)
  Treatment-related AE leading to discontinuation: Drug eruption: 1 (0.8) n (%)
  Treatment-related AE leading to discontinuation: Enterocolitis: 1 (0.8) n (%)
  Treatment-related AE leading to discontinuation: Fatigue: 1 (0.8) n (%)
  Treatment-related AE leading to discontinuation: Hyperglycaemia: 1 (0.8) n (%)
  Treatment-related AE leading to discontinuation: Interstitial lung disease: 1 (0.8) n (%)
  Treatment-related AE leading to discontinuation: Overall: 15 (12.0) n (%)
  Treatment-related AE leading to discontinuation: Peripheral sensory neuropathy: 8 (6.4) n (%)
  Treatment-related AE leading to discontinuation: Stevens-Johnson syndrome: 1 (0.8) n (%)
  Treatment-related TEAEs: 117 (93.6) n (%)
  Treatment-related TEAEs (all grades): Alopecia: 62 (49.6) n (%)
  Treatment-related TEAEs (all grades): Anaemia: 27 (21.6) n (%)
  Treatment-related TEAEs (all grades): Aspartate aminotransferase increased: 17 (13.6) n (%)
  Treatment-related TEAEs (all grades): Decreased appetite: 55 (44.0) n (%)
  Treatment-related TEAEs (all grades): Diarrhoea: 41 (32.8) n (%)
  Treatment-related TEAEs (all grades): Dry eye: 25 (20.0) n (%)
  Treatment-related TEAEs (all grades): Dry skin: 30 (24.0) n (%)
  Treatment-related TEAEs (all grades): Dysgeusia: 47 (37.6) n (%)
  Treatment-related TEAEs (all grades): Fatigue: 62 (49.6) n (%)
  Treatment-related TEAEs (all grades): Lacrimation increased: 21 (16.8) n (%)
  Treatment-related TEAEs (all grades): Nausea: 50 (40.0) n (%)
  Treatment-related TEAEs (all grades): Neutropenia: 13 (10.4) n (%)
  Treatment-related TEAEs (all grades): Oedema peripheral: 15 (12.0) n (%)
  Treatment-related TEAEs (all grades): Overall: 117 (93.6) n (%)
  Treatment-related TEAEs (all grades): Peripheral sensory neuropathy: 50 (40.0) n (%)
  Treatment-related TEAEs (all grades): Pruritus: 32 (25.6) n (%)
  Treatment-related TEAEs (all grades): Rash maculo-papular: 28 (22.4) n (%)
  Treatment-related TEAEs (all grades): Vomiting: 19 (15.2) n (%)
  Treatment-related TEAEs (all grades): Weight decreased: 29 (23.2) n (%)
  Treatment-related TEAEs leading to death: 0 n (%)
  Treatment-related TEAEs leading to treatment discontinuation: 15 (12.0) n (%)
  Treatment-related TEAEs ≥Grade 3: Acute kidney injury: 1 (0.8) n (%)
  Treatment-related TEAEs ≥Grade 3: Amylase increased: 3 (2.4) n (%)
  Treatment-related TEAEs ≥Grade 3: Anaemia: 9 (7.2) n (%)
  Treatment-related TEAEs ≥Grade 3: Aspartate aminotransferase increased: 4 (3.2) n (%)
  Treatment-related TEAEs ≥Grade 3: Decreased appetite: 1 (0.8) n (%)
  Treatment-related TEAEs ≥Grade 3: Diarrhoea: 3 (2.4) n (%)
  Treatment-related TEAEs ≥Grade 3: Fatigue: 8 (6.4) n (%)
  Treatment-related TEAEs ≥Grade 3: Febrile neutropenia: 5 (4.0) n (%)
  Treatment-related TEAEs ≥Grade 3: Hyperglycaemia: 5 (4.0) n (%)
  Treatment-related TEAEs ≥Grade 3: Hyponatraemia: 3 (2.4) n (%)
  Treatment-related TEAEs ≥Grade 3: Lipase increased: 5 (4.0) n (%)
  Treatment-related TEAEs ≥Grade 3: Neutropenia: 10 (8.0) n (%)
  Treatment-related TEAEs ≥Grade 3: Neutrophil count decreased: 3 (2.4) n (%)
  Treatment-related TEAEs ≥Grade 3: Overall: 70 (56.0) n (%)
  Treatment-related TEAEs ≥Grade 3: Peripheral sensory neuropathy: 2 (1.6) n (%)
  Treatment-related TEAEs ≥Grade 3: Pruritus: 2 (1.6) n (%)
  Treatment-related TEAEs ≥Grade 3: Rash erythematous: 4 (3.2) n (%)
  Treatment-related TEAEs ≥Grade 3: Rash maculo-papular: 5 (4.0) n (%)
  Treatment-related grade 3-5 TEAEs: 70 (56.9) n (%)
  Treatment-related serious TEAEs: 24 (19.2) n (%)
[1]
  TEAEs leading to death (excluding disease progression): Acute respiratory failure: 1 (0.8)
  TEAEs leading to death (excluding disease progression): Cardiac disorder: 1 (0.8)
  TEAEs leading to death (excluding disease progression): Overall: 4 (3.2)
  TEAEs leading to death (excluding disease progression): Pneumonia aspiration: 1 (0.8)
  TEAEs leading to death (excluding disease progression): Sepsis: 1 (0.8)
Cohort 2 (N = 89)
  AE of special interest, All Grade: Hyperglycemia: 16 (18) N (%)
  AE of special interest, All Grade: IRR: 6 (6.7) N (%)
